8 molecules from patent US20170306033A1 (Amgen, published 2017) can be followed below.

For assay [1], the target named is human CGRP receptor (human, UniProt Q16602 23-461; O60894 27-148). The assay is described as follows: cell-based or functional assay.
For assay [2], the target named is T1, human PAC1 receptor (human, UniProt P41586 21-468).
T1 sequence: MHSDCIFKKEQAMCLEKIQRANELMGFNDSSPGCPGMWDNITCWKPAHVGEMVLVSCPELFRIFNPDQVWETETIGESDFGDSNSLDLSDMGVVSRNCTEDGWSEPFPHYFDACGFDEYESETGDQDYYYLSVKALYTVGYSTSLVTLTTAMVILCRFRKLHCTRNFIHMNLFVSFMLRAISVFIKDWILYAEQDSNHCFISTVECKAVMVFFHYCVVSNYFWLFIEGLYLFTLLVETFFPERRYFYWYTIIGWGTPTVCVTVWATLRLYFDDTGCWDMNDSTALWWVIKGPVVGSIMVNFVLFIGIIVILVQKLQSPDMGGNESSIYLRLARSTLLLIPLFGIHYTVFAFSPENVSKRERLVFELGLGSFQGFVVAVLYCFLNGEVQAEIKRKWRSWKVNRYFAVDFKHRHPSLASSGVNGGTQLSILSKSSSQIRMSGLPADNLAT
The assay is described as follows: cell-based or functional assay.

Sequence of human CGRP receptor (Q16602 23-461 limits assumed, chain 1 of 2): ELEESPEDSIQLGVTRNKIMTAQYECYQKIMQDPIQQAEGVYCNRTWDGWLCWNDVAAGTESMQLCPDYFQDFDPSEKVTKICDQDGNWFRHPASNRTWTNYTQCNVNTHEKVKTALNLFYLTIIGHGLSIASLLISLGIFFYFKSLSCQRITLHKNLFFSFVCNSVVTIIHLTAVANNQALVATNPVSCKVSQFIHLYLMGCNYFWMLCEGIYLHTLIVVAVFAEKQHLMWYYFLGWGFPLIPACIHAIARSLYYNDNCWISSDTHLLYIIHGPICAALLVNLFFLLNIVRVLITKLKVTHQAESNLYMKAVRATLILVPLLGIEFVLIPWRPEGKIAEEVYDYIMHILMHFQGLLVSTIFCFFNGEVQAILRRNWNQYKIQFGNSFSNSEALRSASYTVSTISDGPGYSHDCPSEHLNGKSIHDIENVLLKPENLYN
Sequence of human CGRP receptor (O60894 27-148 limits assumed, chain 2 of 2): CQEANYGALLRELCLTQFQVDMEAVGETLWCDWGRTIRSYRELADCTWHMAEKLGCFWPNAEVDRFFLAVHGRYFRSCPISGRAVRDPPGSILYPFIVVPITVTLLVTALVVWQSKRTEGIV

B1: iPS:326645 (bispecific antibody, human IgG2, kappa, lambda)
light 1: not shown
heavy 1: QVQLQESGPGLVKPSQTLSLTCTVSGGSISSGGYYWSWIRQHPGKGLEWIGYIYYSGNTYYNPSLKSRVTISGDTSKNQFSLKLRSVTAADTAVYYCTRGGAARGMDVWGQGTTVTVSSASTKGPSVFPLAPCSRSTSESTAALGCLVKDYFPEPVTVSWNSGALTSGVHTFPAVLQSSGLYSLKSVVTVPSSNFGTQTYTCNVDHKPSNTKVDKTVERKCCVECPPCPAPPVAGPSVFLFPPKPKDTLMISRTPEVTCVVVDVSHEDPEVQFNWYVDGVEVHNAKTKPREEQFNSTFRVVSVLTVVHQDWLNGKEYKCKVSNKGLPAPIEKTISKTKGQPREPQVYTLPPSREEMTKNQVSLTCLVDGFYPSDIAVEWESNGQPENNYDTTPPMLDSDGSFFLYSDLTVDKSRWQQGNVFSCSVMHEALHNHYTQKSLSLSPGK
light 2: not shown
heavy 2: not shown
Consider B1, for which the “% inhibition of human CGRPR” value in assay [1] was 67%. Moreover, the “% inhibition of human PAC1” value in assay [2] came to 59%.

B2: iPS:327896 (bispecific antibody, human IgG1, kappa, lambda, N297G)
light 1: DIQMTQSPSSLSASVGDRITITCRASQSISRYLNWYQQKPGKAPKLLIYAASSLQSGIPSRFSGSGSGTDFTLTINSLQPEDFATYFCQQSYSPPFTFGQGTKVDIKRTVAAPSVFIFPPSDEQLKSGTASVVCLLNNFYPREAKVQWKVDNALQSGNSQESVTEQDSKDSTYSLESTLTLSKADYEKHKVYACEVTHQGLSSPVTKSFNRGEC
heavy 1: not shown
light 2: QSVLTQPPSVSAAPGQKVTISCSGSSSNIGNNYVSWYQQLPGTAPKLLIYDNNKRPSGIPDRFSGSKSGTSATLGITGLQTGDEADYYCGTWDSRLSAVVFGGGTKLTVLGQPKANPTVTLFPPSSEELQANKATLVCLISDFYPGAVTVAWKADGSPVKAGVETTKPSKQSNNKYAAKSYLSLTPEQWKSHRSYSCQVTHEGSTVEKTVAPTECS
heavy 2: QVQLVESGGGVVQPGRSLRLSCAASGFTFSSFGMHWVRQAPGKGLEWVAVISFDGSIKYSVDSVKGRFTISRDNSKNTLFLQMNSLRAEDTAVYYCARDRLNYYESSGYYHYKYYGMAVWGQGTTVTVSSASTKGPSVFPLAPSSKSTSGGTAALGCLVKDYFPEPVTVSWNSGALTSGVHTFPAVLQSSGLYSLESVVTVPSSSLGTQTYICNVNHKPSNTKVDKKVEPKSCDKTHTCPPCPAPELLGGPSVFLFPPKPKDTLMISRTPEVTCVVVDVSHEDPEVKFNWYVDGVEVHNAKTKPCEEQYGSTYRCVSVLTVLHQDWLNGKEYKCKVSNKALPAPIEKTISKAKGQPREPQVYTLPPSRKKMTKNQVSLTCLVKGFYPSDIAVEWESNGQPENNYKTTPPVLKSDGSFFLYSKLTVDKSRWQQGNVFSCSVMHEALHNHYTQKSLSLSPGK
For the molecule B2, in assay [1], the “% inhibition of human CGRPR” value stood at 87%. The “% inhibition of human PAC1” value in assay [2] turned out to be 28%.

B3: iPS:327887 (bispecific antibody, human IgG1, kappa, lambda, N297G)
light 1: not shown
heavy 1: not shown
light 2: QSVLTQPPSVSAAPGQKVTISCSGSSSNIGNNYVSWYQQLPGTAPKLLIYDNNKRPSGIPDRFSGSKSGTSATLGITGLQTGDEADYYCGTWDSRLSAVVFGGGTKLTVLGQPKANPTVTLFPPSSEELQANKATLVCLISDFYPGAVTVAWKADGSPVKAGVETTKPSKQSNNKYAAKSYLSLTPEQWKSHRSYSCQVTHEGSTVEKTVAPTECS
heavy 2: QVQLVESGGGVVQPGRSLRLSCAASGFTFSSFGMHWVRQAPGKGLEWVAVISFDGSIKYSVDSVKGRFTISRDNSKNTLFLQMNSLRAEDTAVYYCARDRLNYYDSSGYYHYKYYGMAVWGQGTTVTVSSASTKGPSVFPLAPSSKSTSGGTAALGCLVKDYFPEPVTVSWNSGALTSGVHTFPAVLQSSGLYSLESVVTVPSSSLGTQTYICNVNHKPSNTKVDKKVEPKSCDKTHTCPPCPAPELLGGPSVFLFPPKPKDTLMISRTPEVTCVVVDVSHEDPEVKFNWYVDGVEVHNAKTKPCEEQYGSTYRCVSVLTVLHQDWLNGKEYKCKVSNKALPAPIEKTISKAKGQPREPQVYTLPPSRKKMTKNQVSLTCLVKGFYPSDIAVEWESNGQPENNYKTTPPVLKSDGSFFLYSKLTVDKSRWQQGNVFSCSVMHEALHNHYTQKSLSLSPGK
Turning to B3, in assay [1], the “% inhibition of human CGRPR” value was 87%. For the same molecule, in assay [2], the “% inhibition of human PAC1” value turned out to be 35%.

B4: iPS:328031 (bispecific antibody, human IgG1, kappa, N297G)
light 1: DIQMTQSPSSLSASVGDRITITCRASQSISRYLNWYQQKPGKAPKLLIYAASSLQSGIPSRFSGSGSGTDFTLTINSLQPEDFATYFCQQSYSPPFTFGQGTKVDIKRTVAAPSVFIFPPSDEQLKSGTASVVCLLNNFYPREAKVQWKVDNALQSGNSQESVTEQDSKDSTYSLESTLTLSKADYEKHKVYACEVTHQGLSSPVTKSFNRGEC
heavy 1: not shown
light 2: EIVLTQSPGTLSLSPGERATLSCRASQSVSSGYLTWYQQKPGQAPRLLIYGASSRATGIPDRFSGSGSGTDFTLTISRLEPEDFAVYYCQQYGNSLSRFGQGTKLEIKRTVAAPSVFIFPPSDEQLKSGTASVVCLLNNFYPREAKVQWKVDNALQSGNSQESVTEQDSKDSTYSLKSTLTLSKADYEKHKVYACEVTHQGLSSPVTKSFNRGEC
heavy 2: not shown
Take B4: the “% inhibition of human CGRPR” value in assay [1] worked out at 75%. The “% inhibition of human PAC1” value in assay [2] worked out at 27%.

B5: iPS:327888 (bispecific antibody, human IgG1, kappa, lambda, N297G)
light 1: DIQMTQSPSSLSASVGDRITITCRASQSISRYLNWYQQKPGKAPKLLIYAASSLQSGIPSRFSGSGSGTDFTLTINSLQPEDFATYFCQQSYSPPFTFGQGTKVDIKRTVAAPSVFIFPPSDEQLKSGTASVVCLLNNFYPREAKVQWKVDNALQSGNSQESVTEQDSKDSTYSLESTLTLSKADYEKHKVYACEVTHQGLSSPVTKSFNRGEC
heavy 1: not shown
light 2: QSVLTQPPSVSAAPGQKVTISCSGSSSNIGNNYVSWYQQLPGTAPKLLIYDNNKRPSGIPDRFSGSKSGTSATLAITGLQTGDEADYYCGTWDSRLSAVVFGGGTKLTVLGQPKANPTVTLFPPSSEELQANKATLVCLISDFYPGAVTVAWKADGSPVKAGVETTKPSKQSNNKYAAKSYLSLTPEQWKSHRSYSCQVTHEGSTVEKTVAPTECS
heavy 2: QVQLVESGGGVVQPGRSLRLSCAASGFTFSSFGMHWVRQAPGKGLEWVAVISFDGSIKYSVDSVKGRFTISRDNSKNTLFLQMNSLRAEDTAVYYCARDRLNYYDSSGYYHYKYYGMAVWGQGTTVTVSSASTKGPSVFPLAPSSKSTSGGTAALGCLVKDYFPEPVTVSWNSGALTSGVHTFPAVLQSSGLYSLESVVTVPSSSLGTQTYICNVNHKPSNTKVDKKVEPKSCDKTHTCPPCPAPELLGGPSVFLFPPKPKDTLMISRTPEVTCVVVDVSHEDPEVKFNWYVDGVEVHNAKTKPCEEQYGSTYRCVSVLTVLHQDWLNGKEYKCKVSNKALPAPIEKTISKAKGQPREPQVYTLPPSRKEMTKNQVSLTCLVKGFYPSDIAVEWESNGQPENNYKTTPPVLKSDGSFFLYSKLTVDKSRWQQGNVFSCSVMHEALHNHYTQKSLSLSPGK
As to B5, the “% inhibition of human CGRPR” value in assay [1] is 83%. Moreover, in assay [2], the “% inhibition of human PAC1” value was 56%.

B6: iPS:327897 (bispecific antibody, human IgG1, kappa, lambda, N297G)
light 1: not shown
heavy 1: not shown
light 2: QSVLTQPPSVSAAPGQKVTISCSGSSSNIGNNYVSWYQQLPGTAPKLLIYDNNKRPSGIPDRFSGSKSGTSATLGITGLQTGDEADYYCGTWDSRLSAVVFGGGTKLTVLGQPKANPTVTLFPPSSEELQANKATLVCLISDFYPGAVTVAWKADGSPVKAGVETTKPSKQSNNKYAAKSYLSLTPEQWKSHRSYSCQVTHEGSTVEKTVAPTECS
heavy 2: QVQLVESGGGVVQPGRSLRLSCAASGFTFSSFGMHWVRQAPGKGLEWVAVISFDGSIKYSVDSVKGRFTISRDNSKNTLFLQMNSLRAEDTAVYYCARDRLNYYESSGYYHYKYYGMAVWGQGTTVTVSSASTKGPSVFPLAPSSKSTSGGTAALGCLVKDYFPEPVTVSWNSGALTSGVHTFPAVLQSSGLYSLESVVTVPSSSLGTQTYICNVNHKPSNTKVDKKVEPKSCDKTHTCPPCPAPELLGGPSVFLFPPKPKDTLMISRTPEVTCVVVDVSHEDPEVKFNWYVDGVEVHNAKTKPCEEQYGSTYRCVSVLTVLHQDWLNGKEYKCKVSNKALPAPIEKTISKAKGQPREPQVYTLPPSRKKMTKNQVSLTCLVKGFYPSDIAVEWESNGQPENNYKTTPPVLKSDGSFFLYSKLTVDKSRWQQGNVFSCSVMHEALHNHYTQKSLSLSPGK
As to B6, the “% inhibition of human CGRPR” value in assay [1] came out at 80%. Also, in assay [2], the “% inhibition of human PAC1” value worked out at 12%.

B7: iPS:327889 (bispecific antibody, human IgG1, kappa, lambda, N297G)
light 1: not shown
heavy 1: not shown
light 2: QSVLTQPPSVSAAPGQKVTISCSGSSSNIGNNYVSWYQQLPGTAPKLLIYDNNKRPSGIPDRFSGSKSGTSATLAITGLQTGDEADYYCGTWDSRLSAVVFGGGTKLTVLGQPKANPTVTLFPPSSEELQANKATLVCLISDFYPGAVTVAWKADGSPVKAGVETTKPSKQSNNKYAAKSYLSLTPEQWKSHRSYSCQVTHEGSTVEKTVAPTECS
heavy 2: QVQLVESGGGVVQPGRSLRLSCAASGFTFSSFGMHWVRQAPGKGLEWVAVISFDGSIKYSVDSVKGRFTISRDNSKNTLFLQMNSLRAEDTAVYYCARDRLNYYDSSGYYHYKYYGMAVWGQGTTVTVSSASTKGPSVFPLAPSSKSTSGGTAALGCLVKDYFPEPVTVSWNSGALTSGVHTFPAVLQSSGLYSLESVVTVPSSSLGTQTYICNVNHKPSNTKVDKKVEPKSCDKTHTCPPCPAPELLGGPSVFLFPPKPKDTLMISRTPEVTCVVVDVSHEDPEVKFNWYVDGVEVHNAKTKPCEEQYGSTYRCVSVLTVLHQDWLNGKEYKCKVSNKALPAPIEKTISKAKGQPREPQVYTLPPSRKEMTKNQVSLTCLVKGFYPSDIAVEWESNGQPENNYKTTPPVLKSDGSFFLYSKLTVDKSRWQQGNVFSCSVMHEALHNHYTQKSLSLSPGK
On to B7, for which the “% inhibition of human CGRPR” value in assay [1] is 83%. In assay [2], the “% inhibition of human PAC1” value was 9%.

B8: iPS:328033 (bispecific antibody, human IgG1, kappa, N297G)
light 1: not shown
heavy 1: not shown
light 2: EIVLTQSPGTLSLSPGERATLSCRASQSVSSGYLTWYQQKPGQAPRLLIYGASSRATGIPDRFSGSGSGTDFTLTISRLEPEDFAVYYCQQYGNSLSRFGQGTKLEIKRTVAAPSVFIFPPSDEQLKSGTASVVCLLNNFYPREAKVQWKVDNALQSGNSQESVTEQDSKDSTYSLKSTLTLSKADYEKHKVYACEVTHQGLSSPVTKSFNRGEC
heavy 2: not shown
Take B8: the “% inhibition of human CGRPR” value in assay [1] is 82%. Further, the “% inhibition of human PAC1” value in assay [2] was determined as 20%.
